Laboratory results reported in US8853149.

B1: cyclic III peptide 7 (KLKLK-T1-AVVSW-T1) (peptide)
peptide: KLKLKAVVSW
modifications: here or on the partner: head-to-tail cyclic; two T1 linkers (NH2CH2CH2N(SO2Me)CH2COOH) join the strands
B2: cyclic III peptide 5 (KLKLK-T1-MVASW-T1) (peptide)
peptide: KLKLKMVASW
modifications: here or on the partner: head-to-tail cyclic; two T1 linkers (NH2CH2CH2N(SO2Me)CH2COOH) join the strands
B3: cyclic III peptide 6 (KLKLK-T1-MAVSW-T1) (peptide)
peptide: KLKLKMAVSW
modifications: here or on the partner: head-to-tail cyclic; two T1 linkers (NH2CH2CH2N(SO2Me)CH2COOH) join the strands
B4: cyclic III peptide 4 (KLKLK-T1-MVVAW-T1) (peptide)
peptide: KLKLKMVVAW
modifications: here or on the partner: head-to-tail cyclic; two T1 linkers (NH2CH2CH2N(SO2Me)CH2COOH) join the strands
B5: cyclic III peptide 3 (KLKLK-T1-MVVSA-T1) (peptide)
peptide: KLKLKMVVSA
modifications: here or on the partner: head-to-tail cyclic; two T1 linkers (NH2CH2CH2N(SO2Me)CH2COOH) join the strands

target: integrins; assay: cell-based or functional assay

IC50 (µM), bioactivity of cyclic III peptide analogs	Binder
31 µM	B1
19 µM	B2
6 µM	B3
4 µM	B4
57 µM	B5
